Laboratory results from PMC8028046.

Key:
[1] = biological target: amyloid-beta fibrils (Homo sapiens) (UniProt P05067); experiment: SPR; settings: cited from earlier work
Aβ42 fibrils (human) = Aβ42 fibrils (human) (UniProt P05067); experiment: SPR; Aβ42 fibrils immobilized; BRICHOS at 0.391-12.5 μM; global heterogeneous ligand model with two binding sites; apparent constants
[2] = biological target: soluble Aβ42 aggregates of different sizes (human) (UniProt P05067); experiment: FCCS; time course of aggregation of 5, 10 or 20 μM unlabeled Aβ42 with 100 nM HiLyteFluor488-Aβ42 and 483 nM proSP-C BRICHOS T187R (100 nM labeled with Atto655); auto- and cross-correlation curves analysed by MEMFCS and a two-component 3D diffusion model
Sequence of soluble Aβ42 aggregates of different sizes (human) (P05067 671-713): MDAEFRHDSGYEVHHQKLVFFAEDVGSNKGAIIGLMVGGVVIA

Sequence of proSP-C BRICHOS WT (P11686 59-197): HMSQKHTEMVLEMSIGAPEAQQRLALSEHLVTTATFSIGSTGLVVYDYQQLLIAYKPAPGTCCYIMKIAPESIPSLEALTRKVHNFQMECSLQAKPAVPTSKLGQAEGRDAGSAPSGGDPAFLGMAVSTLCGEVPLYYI
Sequence of Aβ42 fibrils (human) (P05067 671-713): as the sequence (P05067 671-713) above
Sequence of amyloid-beta fibrils (Homo sapiens) (P05067 672-713): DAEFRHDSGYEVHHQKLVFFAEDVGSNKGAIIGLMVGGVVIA
Sequence of proSP-C BRICHOS BRICHOS (P11686 91-197): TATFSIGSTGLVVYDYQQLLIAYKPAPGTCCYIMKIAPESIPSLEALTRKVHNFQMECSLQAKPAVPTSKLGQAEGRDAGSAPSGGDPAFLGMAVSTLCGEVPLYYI

Row | KD2 (binding site 2, apparent) (Aβ42 fibrils (human)) | ka2 (binding site 2) (Aβ42 fibrils (human)) | kd2 (binding site 2) (Aβ42 fibrils (human)) | stoichiometry N [2] | Substance | Kd [1]
1 |  |  |  |  | proSP-C BRICHOS BRICHOS (from UniProt P11686) | 40 nM
2 | 25 nM | 6800 M^–1 s^–1 | 0.00017 s^–1 |  | proSP-C BRICHOS T187R (from UniProt P11686 59-197) (domain or fragment) | 
3 |  |  |  | < 10 | proSP-C BRICHOS T187R-Atto655 (from UniProt P11686 59-197) (domain or fragment) | 
4 | 130 nM | 1770 M^–1 s^–1 | 0.00023 s^–1 |  | proSP-C BRICHOS WT (from UniProt P11686 59-197) (domain or fragment) | 
